Earlier results on two substances are cited in paper PMC5578174.

The target of series [1] is Ang-2 (Homo sapiens) (UniProt O15123).
Series [2] addresses PDGFRα (Homo sapiens) (UniProt P16234).

Sequence of Ang-2 (Homo sapiens) (O15123 19-496): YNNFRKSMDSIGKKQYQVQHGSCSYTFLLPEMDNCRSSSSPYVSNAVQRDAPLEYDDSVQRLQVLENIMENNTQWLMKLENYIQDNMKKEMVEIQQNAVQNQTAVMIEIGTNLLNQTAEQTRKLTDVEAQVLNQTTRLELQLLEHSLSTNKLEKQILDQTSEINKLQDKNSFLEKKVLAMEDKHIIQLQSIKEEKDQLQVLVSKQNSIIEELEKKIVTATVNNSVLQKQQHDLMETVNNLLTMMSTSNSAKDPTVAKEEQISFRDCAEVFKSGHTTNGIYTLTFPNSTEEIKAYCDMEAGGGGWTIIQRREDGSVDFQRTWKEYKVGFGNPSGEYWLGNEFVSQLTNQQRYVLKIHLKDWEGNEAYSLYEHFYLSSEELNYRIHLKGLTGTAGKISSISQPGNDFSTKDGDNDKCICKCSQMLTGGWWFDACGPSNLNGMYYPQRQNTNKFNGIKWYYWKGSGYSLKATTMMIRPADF
Sequence of PDGFRα (Homo sapiens) (P16234 24-528): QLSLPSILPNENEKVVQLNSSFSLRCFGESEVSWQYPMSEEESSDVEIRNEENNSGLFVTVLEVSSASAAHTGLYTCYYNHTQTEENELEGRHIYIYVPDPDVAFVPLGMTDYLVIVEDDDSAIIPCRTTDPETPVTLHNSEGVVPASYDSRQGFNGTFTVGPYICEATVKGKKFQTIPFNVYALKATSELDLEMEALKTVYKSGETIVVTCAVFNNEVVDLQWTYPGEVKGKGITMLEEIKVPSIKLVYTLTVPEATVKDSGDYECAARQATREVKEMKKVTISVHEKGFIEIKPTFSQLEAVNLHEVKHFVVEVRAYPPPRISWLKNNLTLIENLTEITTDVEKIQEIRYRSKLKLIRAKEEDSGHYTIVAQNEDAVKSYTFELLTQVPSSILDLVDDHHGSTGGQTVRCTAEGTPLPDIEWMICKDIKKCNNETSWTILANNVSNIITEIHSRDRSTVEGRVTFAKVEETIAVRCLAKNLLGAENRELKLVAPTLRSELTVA

Regarding Nesvacumab, the Kd in series [1] is 0.024 nM.

As for Olaratumab, the Kd in series [2] is 0.04 nM.

By Kd is commonly meant the constant that tells how readily two partners part at equilibrium.
